Data published in US20210269539A1 (NANJING UMAB BIOPHARMA, published 2021).
Numbering of substitutions follows the chain as printed. Several values for one entry are separate records, joined by “and”; a condition that tells them apart may be missing. Equal entries are not always repeated. Values belong to the binder of their own block, whether it stands above or below them.

Tests used:
human OX40 on cells [1] = biological target: T1, human OX40 on cells (human, UniProt P43489 29-277); assay: cell-based or functional assay
T1 sequence (looked up): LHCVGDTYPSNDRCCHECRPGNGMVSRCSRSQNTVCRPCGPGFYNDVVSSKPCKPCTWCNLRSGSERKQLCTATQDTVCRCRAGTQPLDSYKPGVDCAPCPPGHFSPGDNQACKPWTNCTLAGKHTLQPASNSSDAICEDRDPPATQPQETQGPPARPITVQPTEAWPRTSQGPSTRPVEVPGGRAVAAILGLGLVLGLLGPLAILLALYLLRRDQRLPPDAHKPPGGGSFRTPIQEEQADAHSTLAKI

human OX40 protein [2] = biological target: T2, human OX40 protein (human, UniProt P43489 29-214, limits assumed); assay: ELISA as in Example 3, human OX40 protein coated
T2 construct: also called human OX antigen protein
T2 sequence (looked up): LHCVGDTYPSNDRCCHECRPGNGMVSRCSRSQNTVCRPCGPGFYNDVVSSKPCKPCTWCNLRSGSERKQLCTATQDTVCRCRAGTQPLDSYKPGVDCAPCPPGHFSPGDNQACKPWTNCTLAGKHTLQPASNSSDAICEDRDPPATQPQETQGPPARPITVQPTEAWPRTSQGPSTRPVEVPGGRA
Procedure: (§1) The next day, it was washed three times with 300 μL PBST (Tween 20: 0.5‰), then blocked with 5% BSA/PBS at 100 μL/well for 2 hours, and shaken at room temperature. After washing 3 times with 300 μL PBST, the gradient dilutions of samples were prepared with PBS, which were added into the 96-well plate at 100 μL/well and shaken at room temperature for 1 hour, and washed 3 times with 300 μL PBST. The secondary antibody goat anti-human IgG HRP solution was prepared, which was added into the 96-well plate at 100 μL/well, and shaken at room temperature for 1 hour. After washing 4 times with 300 μL PBST, TMB was added at 100 μL/well and developed for 20 min. 0.6N H₂SO4 was added at 100 μL/well to stop the development, and OD450 nm was measured.
The in vitro binding assay of humanized antibodies and human OX antigen protein was carried out as described in Example 3.

human OX40 on cells [3] = biological target: T1, human OX40 on cells; assay: FACS on CHO-hOX40 cells
Procedure: The OX40 antibody gradient was created with PBS, and a stock solution of 10× final concentration was prepared. CHO-hOX40 cells were collected, washed once with PBS, counted, and diluted to a cell suspension of 2×10⁶ cells/ml. 10 μl of OX40 antibody stock solutions were added into 100 μl of cell suspension, and incubated at 4° C. in the dark for 30 min. After washing twice with PBS, a secondary antibody was added and an incubation was carried out at 4° C. for 30 min in the dark. After washing once with PBS, the cells were suspended in 400 μl FACS buffer and measured on the instrument.

mouse OX40 on CHO cells = biological target: T3, mouse OX40 on CHO cells (mouse, UniProt P47741 20-272); assay: FACS on CHO cells expressing mouse OX40
T3 construct: whole, on cells; also called CHO-mOX40
T3 sequence (looked up): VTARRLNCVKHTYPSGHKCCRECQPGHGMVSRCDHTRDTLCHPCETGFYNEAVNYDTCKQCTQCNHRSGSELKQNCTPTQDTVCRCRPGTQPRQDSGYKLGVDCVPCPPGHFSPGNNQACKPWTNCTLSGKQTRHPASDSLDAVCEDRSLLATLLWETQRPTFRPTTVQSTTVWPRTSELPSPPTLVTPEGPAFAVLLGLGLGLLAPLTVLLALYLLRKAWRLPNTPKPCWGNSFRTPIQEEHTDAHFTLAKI

human OX40 protein [4] = biological target: T2, human OX40 protein; assay: ELISA, protein coated at 1 µg/mL, goat anti-human IgG HRP
Procedure: as §1

B1: MT01-C1 (antibody, human IgG1, kappa)
heavy: not shown
light: DIQMTQSPSSVSASVGDRVTITCRASQDISNYLSWYQQKPGGAVKLLIYYTSRLHSGVPSRFSGSGSGTDYTLTISSLQPEDFATYFCQQGITLPWTFGQGTKVEIKRTVAAPSVFIFPPSDEQLKSGTASVVCLLNNFYPREAKVQWKVDNALQSGNSQESVTEQDSKDSTYSLSSTLTLSKADYEKHKVYACEVTHQGLSSPVTKSFNRGEC
notes: also called humanized monoclonal antibody MT01-C1
EC50 of activation on a cell line transfected stably by Jurkat-OX40-NFκB-luciferase reporter (human OX40 on cells [1]): 0.028 µg/mL | EC50 (human OX40 protein [2]): 0.345 µg/mL

B5: MT01-L1(M1/M2) (antibody, human IgG1, kappa, V domains shown)
VH: EVQLQQSGPELVKPGASVKMSCKASGYTFTSYVMHWLKQKPGQGLEWIGYINPYNDATKYNEKFKGKAKLTSDKSSSTAYMELSSLTSEDSAVYYCANYYGSKFAMDYWGQGTSVTVSS
VL: DIQMTQTTSSLSASLGDRVTISCRASQDISNYLSWYQRKPDGAVKLLIYYTSRLHSGVPSRFSGSGSGADYSLTISNLEQEDIATYFCQQGITLPFTFGGGTKLEIKR
EC50 for activation of the NFκB-luciferase reporter gene (human OX40 on cells [1]): 128 ng/mL

B6: MT01-L1 (antibody, human IgG1, kappa)
heavy: not shown
light: DIQMTQTTSSLSASLGDRVTISCRASQDISNYLSWYQRKPDGAVKLLIYYTSRLHSGVPSRFSGSGSGADYSLTISNLEQEDIATYFCQQGITLPWTFGGGTKLEIKRTVAAPSVFIFPPSDEQLKSGTASVVCLLNNFYPREAKVQWKVDNALQSGNSQESVTEQDSKDSTYSLSSTLTLSKADYEKHKVYACEVTHQGLSSPVTKSFNRGEC
notes: also called human-mouse chimeric monoclonal antibody MT01-L1
EC50 for activation of the NFκB-luciferase reporter gene (human OX40 on cells [1]): 39.1 ng/mL and 57.4 ng/mL | IC50 of inhibition of the OX40L-induced activation of NFkB signaling pathway in Jurkat cells (human OX40 on cells [1]): 0.686 µg/mL | EC50 (human OX40 on cells [3]): 1.22 µg/mL | binding result (mouse OX40 on CHO cells): no binding | EC50 (human OX40 protein [4]): 0.291 µg/mL

B7: MT01-L1(G2) (antibody, human IgG2, kappa)
heavy: EVQLQQSGPELVKPGASVKMSCKASGYTFTSYVMHWLKQKPGQGLEWIGYINPYNDGTKYNEKFKGKAKLTSDKSSSTAYMELSSLTSEDSAVYYCANYYGSKFAMDYWGQGTSVTVSSASTKGPSVFPLAPCSRSTSESTAALGCLVKDYFPEPVTVSWNSGALTSGVHTFPAVLQSSGLYSLSSVVTVPSSNFGTQTYTCNVDHKPSNTKVDKTVERKCCVECPPCPAPPVAGPSVFLFPPKPKDTLMISRTPEVTCVVVDVSHEDPEVQFNWYVDGVEVHNAKTKPREEQFNSTFRVVSVLTVVHQDWLNGKEYKCKVSNKGLPAPIEKTISKTKGQPREPQVYTLPPSREEMTKNQVSLTCLVKGFYPSDIAVEWESNGQPENNYKTTPPMLDSDGSFFLYSKLTVDKSRWQQGNVFSCSVMHEALHNHYTQKSLSLSPGK
light: B6 light
EC50 for activation of the NFκB-luciferase reporter gene (human OX40 on cells [1]): 14.9 ng/mL

B8: MT01-L2 (antibody, human IgG1, lambda)
heavy: not shown
light: QLVLTQSSSASFSLGASAKLTCTLSSQHSTYIIEWYQQQPLKPPKYVMELKKDGSHSTGEGIPDRFSGSSSGADRYLSISNIQPEDEAIYICGVGNTIKEQFVYVFGGGTKVTVLGQPKANPTVTLFPPSSEELQANKATLVCLISDFYPGAVTVAWKADGSPVKAGVETTKPSKQSNNKYAASSYLSLTPEQWKSHRSYSCQVTHEGSTVEKTVAPTECS
notes: also called human-mouse chimeric monoclonal antibody MT01-L2
EC50 for activation of the NFκB-luciferase reporter gene (human OX40 on cells [1]): 84.1 ng/mL | IC50 of inhibition of the OX40L-induced activation of NFkB signaling pathway in Jurkat cells (human OX40 on cells [1]): 1.59 µg/mL | EC50 (human OX40 on cells [3]): 2.42 µg/mL | binding result (mouse OX40 on CHO cells): no binding | EC50 (human OX40 protein [4]): 0.208 µg/mL

The remaining lines, values ahead:

EC50 of activation on a cell line transfected stably by Jurkat-OX40-NFκB-luciferase reporter (human OX40 on cells [1]): 0.0434 µg/mL | EC50 (human OX40 protein [2]): 0.39 µg/mL
B2: MT01-C1(G2) (antibody, human IgG2, kappa)
heavy: EVQLVQSGAEVKKPGESLKISCKASGYTFTSYVMHWLRQMPGKGLEWMGYINPYNDGTKYNEKFKGQVTISSDKSISTAYLQWSSLKASDTAMYYCANYYGSKFAMDYWGQGTMVTVSSASTKGPSVFPLAPCSRSTSESTAALGCLVKDYFPEPVTVSWNSGALTSGVHTFPAVLQSSGLYSLSSVVTVPSSNFGTQTYTCNVDHKPSNTKVDKTVERKCCVECPPCPAPPVAGPSVFLFPPKPKDTLMISRTPEVTCVVVDVSHEDPEVQFNWYVDGVEVHNAKTKPREEQFNSTFRVVSVLTVVHQDWLNGKEYKCKVSNKGLPAPIEKTISKTKGQPREPQVYTLPPSREEMTKNQVSLTCLVKGFYPSDIAVEWESNGQPENNYKTTPPMLDSDGSFFLYSKLTVDKSRWQQGNVFSCSVMHEALHNHYTQKSLSLSPGK
light: B1 light

EC50 for activation of the NFκB-luciferase reporter gene (human OX40 on cells [1]): 64.5 ng/mL
B3: MT01-L1(M1) (antibody, human IgG1, kappa, V domains shown)
VH: B5 VH
VL: B5 VL with F96W

EC50 for activation of the NFκB-luciferase reporter gene (human OX40 on cells [1]): 60 ng/mL
B4: MT01-L1(M2) (antibody, human IgG1, kappa, V domains shown)
VH: B5 VH with A57G
VL: B5 VL

EC50 for activation of the NFκB-luciferase reporter gene (human OX40 on cells [1]): 118 ng/mL
B9: MT01-L2(G2) (antibody, human IgG2, lambda)
heavy: EVQLVESGGGLVQPKGSLSLSCAASGFTFNTYAMNWVRQAPGKGLEWVARIRSKSNNYATYYADSVKDRFTISRDDSQSMLYLQMTNLKTEDTAMYHCVRSLGRAFVYWGQGTLVTVSSASTKGPSVFPLAPCSRSTSESTAALGCLVKDYFPEPVTVSWNSGALTSGVHTFPAVLQSSGLYSLSSVVTVPSSNFGTQTYTCNVDHKPSNTKVDKTVERKCCVECPPCPAPPVAGPSVFLFPPKPKDTLMISRTPEVTCVVVDVSHEDPEVQFNWYVDGVEVHNAKTKPREEQFNSTFRVVSVLTVVHQDWLNGKEYKCKVSNKGLPAPIEKTISKTKGQPREPQVYTLPPSREEMTKNQVSLTCLVKGFYPSDIAVEWESNGQPENNYKTTPPMLDSDGSFFLYSKLTVDKSRWQQGNVFSCSVMHEALHNHYTQKSLSLSPGK
light: B8 light
